The conditions of the series: Myxococcus xanthus, Mops-NaOH 25 mM, CaCl2 3 mM, transition: 3, reversible: Yes, whole UniProt chain shown.

Values joined by “and” are separate entries in the source; they are usually repeats but may differ in a detail not shown here. Equal values may be shown once.

B1: Development-specific protein S wild type, P02966 (protein)
chain: MANITVFYNEDFQGKQVDLPPGNYTRAQLAALGIENNTISSVKVPPGVKAILYQNDGFAGDQIEVVANAEELGPLNNNVSSIRVISVPVQPRARFFYKEQFDGKEVDLPPGQYTQAELERYGIDNNTISSVKPQGLAVVLFKNDNFSGDTLPVNSDAPTLGAMNNNTSSIRIS
Consider B1, for which, for the setting “pH 2, 20 °C, Urea, Absorbance”, the denaturant m value was 2.87 kcal/mol/M, the “denaturant midpoint (higher = more stable)” value was 2.2 M and the unfolding free energy was found to be 6.21 kcal/mol. Besides, for the setting “pH 2, Thermal, CD”, the Tm (in general, the temperature at which the thermal transition is half complete) came to 52 °C. For the setting “pH 7, 20 °C, Urea, Absorbance”, the denaturant m value is 1.2 kcal/mol/M and 1.43 kcal/mol/M and 1.91 kcal/mol/M; the unfolding free energy was 5.02 kcal/mol and 7.41 kcal/mol and 3.59 kcal/mol.
